For orientation: IC50 means the concentration that inhibits the measured activity by half. A lower IC50 goes with inhibition by little substance.

This assay addresses HLA-DR2(15) (human). The assay is described as follows: competition assay against a standard peptide on purified HLA class II.

B1: B. lentus subtilisin epitope peptide, amino acids 160-174 (peptide, UniProt P29600 160-174, looked up)
peptide: SYPARYANAMAVGAT
notes: Synthetic 15-mer; also called peptide position #54
Turning to B1, the IC50 came to 127 nM.

The record behind these values is patent US20080220450A1 (DANISCO US INC GENENCOR DIVISION, published 2008).
